{"source": "patent US20140213513A1", "about": "(Sanofi, priority 2012, published 2014)", "binders": {"B1": {"name": "exendin-4 peptide analogue SEQ ID NO: 22 (peptide)", "peptide": "Y[Aib]QGTFTSDLSIQK([γGlu-Palmitoyl])EKRA[Aib][Aib]EFIEWLKNTGPSSGAPPPS-NH2", "modifications": "N-terminus assumed", "SMILES": "CCCCCCCCCCCCCCCC(=O)N[C@@H](CCC(=O)NCCCC[C@H](NC(=O)[C@H](CCC(N)=O)NC(=O)[C@@H](NC(=O)[C@H](CO)NC(=O)[C@H](CC(C)C)NC(=O)[C@H](CC(=O)O)NC(=O)[C@H](CO)NC(=O)[C@@H](NC(=O)[C@H](Cc1ccccc1)NC(=O)[C@@H](NC(=O)CNC(=O)[C@H](CCC(N)=O)NC(=O)C(C)(C)NC(=O)[C@@H](N)Cc1ccc(O)cc1)[C@@H](C)O)[C@@H](C)O)[C@@H](C)CC)C(=O)N[C@@H](CCC(=O)O)C(=O)N[C@@H](CCCCN)C(=O)N[C@@H](CCCNC(=N)N)C(=O)N[C@@H](C)C(=O)NC(C)(C)C(=O)NC(C)(C)C(=O)N[C@@H](CCC(=O)O)C(=O)N[C@@H](Cc1ccccc1)C(=O)N[C@H](C(=O)N[C@@H](CCC(=O)O)C(=O)N[C@@H](Cc1c[nH]c2ccccc12)C(=O)N[C@@H](CC(C)C)C(=O)N[C@@H](CCCCN)C(=O)N[C@@H](CC(N)=O)C(=O)N[C@H](C(=O)NCC(=O)N1CCC[C@H]1C(=O)N[C@@H](CO)C(=O)N[C@@H](CO)C(=O)NCC(=O)N[C@@H](C)C(=O)N1CCC[C@H]1C(=O)N1CCC[C@H]1C(=O)N1CCC[C@H]1C(=O)N[C@@H](CO)C(N)=O)[C@@H](C)O)[C@@H](C)CC)C(=O)O"}, "B2": {"name": "exendin-4 peptide analogue SEQ ID NO: 23 (peptide)", "peptide": "Y[Aib]QGTFTSDLSIQK([γGlu-Palmitoyl])EKRAA[Aib]YFIEWLKNTGPSSGAPPPS-NH2", "modifications": "N-terminus assumed", "SMILES": "CCCCCCCCCCCCCCCC(=O)N[C@@H](CCC(=O)NCCCC[C@H](NC(=O)[C@H](CCC(N)=O)NC(=O)[C@@H](NC(=O)[C@H](CO)NC(=O)[C@H](CC(C)C)NC(=O)[C@H](CC(=O)O)NC(=O)[C@H](CO)NC(=O)[C@@H](NC(=O)[C@H](Cc1ccccc1)NC(=O)[C@@H](NC(=O)CNC(=O)[C@H](CCC(N)=O)NC(=O)C(C)(C)NC(=O)[C@@H](N)Cc1ccc(O)cc1)[C@@H](C)O)[C@@H](C)O)[C@@H](C)CC)C(=O)N[C@@H](CCC(=O)O)C(=O)N[C@@H](CCCCN)C(=O)N[C@@H](CCCNC(=N)N)C(=O)N[C@@H](C)C(=O)N[C@@H](C)C(=O)NC(C)(C)C(=O)N[C@@H](Cc1ccc(O)cc1)C(=O)N[C@@H](Cc1ccccc1)C(=O)N[C@H](C(=O)N[C@@H](CCC(=O)O)C(=O)N[C@@H](Cc1c[nH]c2ccccc12)C(=O)N[C@@H](CC(C)C)C(=O)N[C@@H](CCCCN)C(=O)N[C@@H](CC(N)=O)C(=O)N[C@H](C(=O)NCC(=O)N1CCC[C@H]1C(=O)N[C@@H](CO)C(=O)N[C@@H](CO)C(=O)NCC(=O)N[C@@H](C)C(=O)N1CCC[C@H]1C(=O)N1CCC[C@H]1C(=O)N1CCC[C@H]1C(=O)N[C@@H](CO)C(N)=O)[C@@H](C)O)[C@@H](C)CC)C(=O)O"}}, "assay_in_all_cases": "cell-based or functional assay", "key": {"[1]": {"molecular_target": "human GLP-1 receptor (human, UniProt P43220 24-463)"}, "[2]": {"molecular_target": "T1, human GIP receptor (human, UniProt P48546 22-466)", "T1 sequence (looked up)": "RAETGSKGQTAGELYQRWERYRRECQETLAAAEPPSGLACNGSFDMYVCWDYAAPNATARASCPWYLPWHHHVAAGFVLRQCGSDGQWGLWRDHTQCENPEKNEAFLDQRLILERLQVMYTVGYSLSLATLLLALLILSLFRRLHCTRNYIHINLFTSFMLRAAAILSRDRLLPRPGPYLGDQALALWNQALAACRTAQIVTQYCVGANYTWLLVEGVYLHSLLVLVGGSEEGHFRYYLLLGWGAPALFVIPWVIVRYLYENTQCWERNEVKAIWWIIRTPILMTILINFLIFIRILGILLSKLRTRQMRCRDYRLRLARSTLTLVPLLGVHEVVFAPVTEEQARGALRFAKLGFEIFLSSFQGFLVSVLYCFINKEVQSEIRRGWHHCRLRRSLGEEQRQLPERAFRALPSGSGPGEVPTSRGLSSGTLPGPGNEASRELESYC"}, "[3]": {"molecular_target": "human glucagon receptor (human, UniProt P47871 26-477)", "sequence (P47871 26-477)": "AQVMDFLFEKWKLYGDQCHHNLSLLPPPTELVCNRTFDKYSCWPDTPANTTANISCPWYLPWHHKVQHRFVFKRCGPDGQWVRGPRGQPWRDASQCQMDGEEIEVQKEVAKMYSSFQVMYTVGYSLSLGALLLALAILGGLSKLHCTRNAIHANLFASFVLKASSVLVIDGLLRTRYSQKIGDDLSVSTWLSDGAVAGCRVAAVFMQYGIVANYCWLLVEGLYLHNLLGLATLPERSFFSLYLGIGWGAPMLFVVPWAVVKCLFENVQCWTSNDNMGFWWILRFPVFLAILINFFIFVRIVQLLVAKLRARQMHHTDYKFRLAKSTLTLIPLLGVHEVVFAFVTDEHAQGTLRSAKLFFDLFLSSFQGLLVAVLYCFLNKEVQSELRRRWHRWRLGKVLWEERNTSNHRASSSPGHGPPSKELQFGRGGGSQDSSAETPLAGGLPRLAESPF"}}, "note": "*1 amine or outer side, *2 acyl side, *3 side chain or, on linkers, in order; H or OH if unused. Where no end group is shown, it is not given here. Side-chain parts run from the residue outwards. [ ]: non-standard residue; d: D form. The star is where a group is joined. γGlu = O=C(O)[C@H](CCC(=O)[*:2])N[*:1]; Palmitoyl = CCCCCCCCCCCCCCCC(=O)*; Aib = CC(C)(N)C(=O)O", "data": [{"binder": "B1", "values": [{"measurement": "EC50 hGLP-1 R", "setting": "[1]", "value": 0.0085, "unit": "nM"}, {"measurement": "EC50 hGIP R", "setting": "[2]", "value": 0.102, "unit": "nM"}, {"measurement": "EC50 hGLUC R", "setting": "[3]", "value": 2.21, "unit": "nM"}]}, {"binder": "B2", "values": [{"measurement": "EC50 hGLP-1 R", "setting": "[1]", "value": 0.0092, "unit": "nM"}, {"measurement": "EC50 hGIP R", "setting": "[2]", "value": 0.135, "unit": "nM"}, {"measurement": "EC50 hGLUC R", "setting": "[3]", "value": 0.312, "unit": "nM"}]}]}
